Four substances from patent US20240228645A1 can be followed below.

In assay [1] the target is human BAFF-R expressed on cells (hBAFF-R-CHO isogenic CHO cells; BAFF-R+ cancer cells) (human) (UniProt Q96RJ3). The experiment in a line: cell-based blocking assay; MFI of BAFF-biotin bound to CHO cells expressing human BAFF-R in the presence of the control antibody.
The target in assay [2] is PSR. The experiment in a line: PSR assay: antibody on Protein A coated beads, biotinylated PSR, SA-PE, flow cytometry; +PSR panel, other quadrants Q1 72.8, Q3 7.72E-3, Q4 0.29; without PSR Q2 0. On the technique in general: A flow cytometer gives signals particle by particle.
In assay [3] the target is PSR. The experiment in a line: PSR assay: antibody on Protein A coated beads, biotinylated PSR, SA-PE, flow cytometry; +PSR panel, other quadrants Q1 98.8, Q3 0, Q4 0.048.
Assay [4] deals with hBAFF-R-hFc-His fusion protein (human) (UniProt Q96RJ3). The experiment in a line: yeast surface display flow cytometry; hBAFF-R-hFc-His (concentration not given).
Assay [5] has the same target. The experiment in a line: yeast surface display flow cytometry, after challenge: 100 pM hBAFFR-Fc biotin, then 1 mM (so in the source); paragraph 270 says 1 uM) nonbiotinylated hBAFFR-Fc, t = 120 min.
The target is the same in assay [6]. The experiment in a line: yeast surface display flow cytometry, before challenge: 100 pM hBAFFR-Fc biotin for 1 hr at RT; other quadrants Q1 44.1, Q3 9.77E-3, Q4 14.6.
The target is the same in assay [7]. The experiment in a line: yeast surface display flow cytometry, after challenge: 100 pM hBAFFR-Fc biotin for 1 hr at RT, then 1 mM (so in the source); paragraph 270 says 1 uM) nonbiotinylated hBAFFR-Fc, t = 120 min; other quadrants Q1 64.5, Q3 0.050, Q4 21.0.
The target is the same in assay [8]. The experiment in a line: yeast surface display flow cytometry; hBAFF-R-hFc-His (concentration not given); other quadrants Q1 0.34, Q3 5.47, Q4 34.4.
For assay [9] the target is unchanged. The experiment in a line: yeast surface display flow cytometry; hBAFF-R-hFc-His (concentration not given); other quadrants Q1 0.17, Q3 10.5, Q4 22.3.
The target is the same in assay [10]. The experiment in a line: yeast surface display flow cytometry; hBAFF-R-hFc-His (concentration not given); other quadrants Q1 0.35, Q3 13.0, Q4 28.5.

Consider Human IgG1k (antibody), for which, in [1], the Minimum (MFI) was found to be 68000 MFI.
Ixekuzumab (antibody) came in with a Q2, percent of beads positive for FITC and for PSR binding (PE), +PSR in [2] of 27.1.
On to Trastuzumab (antibody), for which, in assay [3], the Q2, percent of beads positive for FITC and for PSR binding (PE), +PSR amounted to 1.18.
As to “ianalumab-based scFv benchmark control displayed on yeast”, in assay [4], the Gated lane, percent of events in the drawn gate stood at 0.3. The Gated, percent of events in the drawn gate in [4] worked out at 0.72. Further, the Iana (drawn gate), percent of events, after challenge in assay [5] stood at 0.13. Besides, the Q2, percent of events positive for scFv expression and for antigen binding, before challenge in assay [6] was 41.3. Further, the Q2, percent of events positive for scFv expression and for antigen binding, after challenge in assay [7] is 14.4. Also, the Q2, percent of events positive for scFv expression and for antigen binding in assay [8] amounted to 59.5; in assay [9], 67; in [10] it was 58.2.
